In patent publication US20200339680A1:

Columns and labels:
human TMEM106B (human) [1] = target: human TMEM106B (human) (UniProt Q9NUM4); assay: FACS A549
mouse TMEM106B (mouse) = mouse TMEM106B (mouse) (UniProt Q80X71); assay: FACS Neuro2a
human TMEM106B (human) [2] = target: human TMEM106B (human) (UniProt Q9NUM4); assay: FACS HeLa
human TMEM106B (human) [3] = target: human TMEM106B (human) (UniProt Q9NUM4); assay: FACS U251

Row | MFI (human TMEM106B (human) [1]) [MFI] | MFI (mouse TMEM106B (mouse)) [MFI] | MFI (human TMEM106B (human) [2]) [MFI] | MFI (human TMEM106B (human) [3]) [MFI] | Substance
1 | 148 | 220 | 152 | 165 | Negative ctrl #1 (antibody)
2 | 162 | 235 | 149 | 165 | Negative ctrl #2 (antibody)
3 | 95 | 216 | 143 | 164 | Negative ctrl #3 (antibody)
